The source of these data is publication PMC4445678 (Structure (London, England : 1993), 2010).

The target in one assay is CBX7 cbox (Homo sapiens) (UniProt O95931). To be noted: cited from earlier work.
Assay [1] deals with T1, C-RING1B (C-terminal domain of RING1B), wild-type (human, UniProt Q99496 222-336).
T1 sequence (looked up): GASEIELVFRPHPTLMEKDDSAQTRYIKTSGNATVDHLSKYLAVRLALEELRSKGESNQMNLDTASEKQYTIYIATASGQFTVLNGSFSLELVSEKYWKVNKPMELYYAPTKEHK
Briefly: SPR. (In general: In SPR one partner is held on a chip, and binding of the other changes the refractive index at the surface.)

For assay [2], the target named is T2, C-RING1B 223–333 N306D (human, UniProt Q99496 223-333, N306D).
T2 sequence (looked up): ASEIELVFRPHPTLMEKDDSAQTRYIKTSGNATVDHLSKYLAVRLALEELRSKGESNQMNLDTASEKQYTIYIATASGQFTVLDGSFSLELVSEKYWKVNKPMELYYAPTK
Briefly: crystal structure.

For assay [3], the target named is T2, C-RING1B 223–333 N306D. Nature of the assay: crystal structure. The source holds these as a separate data set.
Assay [4] deals with T1, C-RING1B (C-terminal domain of RING1B), …. Nature of the assay: AUC.

Where two headings read alike, the source gives them in different places.

In the case of RING1B C-RING1B (from UniProt Q99496), the Kd (in general, the concentration at which binding is half-saturated) with CBX7 cbox (Homo sapiens) was 9.2 nM.

B1: MBP-RYBP 145–179 (domain or fragment, human, UniProt Q8N488 145-179, looked up)
chain: RPRLKNVDRSTAQQLAVTVGNVTVIITDFKEKTRS
B1 showed an equilibrium dissociation constant (Kd) in assay [1] of 90 nM.

B2: RYBP 145–179 (domain or fragment, human, UniProt Q8N488 145-179, looked up)
chain: RPRLKNVDRSTAQQLAVTVGNVTVIITDFKEKTRS
For the molecule B2, the binding result with C-RING1B 223–333 N306D [2] is given as “binds”.

B3: cbx7 219–248 (domain or fragment, human, UniProt O95931 219-248, looked up)
chain: EVTVTDITANSITVTFREAQAAEGFFRDRS
Turning to B3, the binding result with C-RING1B 223–333 N306D [3] was “binds”.

B4: RYBP 145–198 (domain or fragment, human, UniProt Q8N488 145-198, looked up)
chain: RPRLKNVDRSTAQQLAVTVGNVTVIITDFKEKTRSSSTSSSTVTSSAGSEQQNQ
Take B4: the stoichiometry N – broadly, a count of units in the complex or per binding partner – in assay [4] came to 1.

B5: MBP-RYBP 145–198 (domain or fragment, human, UniProt Q8N488 145-198, looked up)
chain: RPRLKNVDRSTAQQLAVTVGNVTVIITDFKEKTRSSSTSSSTVTSSAGSEQQNQ
As to B5, the Kd in assay [1] worked out at 100 nM.
